Article doi:10.1101/2024.10.02.616253 (bioRxiv, 2024)

Molecular target: BTN3A1 ectodomain (human, UniProt O00481)
Assay: SPR

BTN3A1 ectodomain, sequence (O00481 30-254): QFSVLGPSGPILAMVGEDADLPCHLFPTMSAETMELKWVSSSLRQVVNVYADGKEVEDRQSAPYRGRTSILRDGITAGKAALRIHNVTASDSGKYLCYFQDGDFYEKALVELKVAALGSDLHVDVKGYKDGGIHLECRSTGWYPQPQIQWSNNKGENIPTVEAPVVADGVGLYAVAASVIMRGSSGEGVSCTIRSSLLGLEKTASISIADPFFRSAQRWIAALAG

binding result: binds
B1: TH001 monoclonal antibody (antibody, V domains shown)
VH: EVHVKQSGAELARPGTSVKLSCKASGYTFTDYYLNWVKQRTGQGLEWIGEIYPGGGNTYYNEKFKGKATLTADKSSSTAYMQLSSLTSEDSAVYFCARRTTVVGDYWGQGTTLTVSS
VL: DVLMTQTPLSLPVSLGDQASISCRSSQSIVNSKGNTYLEWYVQKPGQSPKLLIYKVSNRFSGVPDRFSGSGSGTDFTLKISRVEAEDLGVYYCFQGSHVPWTFGGGTKLEIK
